Laboratory results as given in patent US20230357343A1 (ASHER BIOTHERAPEUTICS, published 2023).
Numbering of substitutions follows the chain as printed. Names and notes keep the numbering of the source.

T1: mouse CD8 (mouse, UniProt P10300 22-175, limits assumed)
T1 construct: also called mouse CD8b
T1 sequence (looked up): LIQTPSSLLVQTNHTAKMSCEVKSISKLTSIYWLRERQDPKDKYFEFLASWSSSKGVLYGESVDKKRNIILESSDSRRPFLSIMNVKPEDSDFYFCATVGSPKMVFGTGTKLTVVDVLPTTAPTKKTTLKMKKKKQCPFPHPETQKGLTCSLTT

B1: xhCD8.1-hIL21 v29 (other)
chain: QGQDRHMIRMRQLIDIVDQLKNYVNDLVPEFLPAPEDVETNCEWSAFSCFQKAQLKSANTGNNERIINVSIKKLKRKPPGGGGEGGGGGEGGCPSCDSYEKKPPKEFLERFKSLLQKMIHQHLSSRTHGSEDS
VH: QVQLVQSGAEVKKPGSSVKVSCKASGGTFSSYAISWVRQAPGQGLEWMGGIIPGYATANYAQKFQGRVTITADESTSTAYMELSSLRSEDTAVYYCARDAAGIRLFADWGQGTLVTVSS
VL: DIQMTQSPSSLSASVGDRVTITCRASQSIYGALNWYQQKPGKAPKLLIYGASNLQSGVPSRFSGSGSGTDFTLTISSLQPEDFATYYCQSTYTAPWTFGGGTKVEIK
notes: hIgG1/kappa; IL-21 part on one heavy-chain C-terminus via (G4S)3 linker
B2: xhCD8.1-hIL21 v31 (other)
chain: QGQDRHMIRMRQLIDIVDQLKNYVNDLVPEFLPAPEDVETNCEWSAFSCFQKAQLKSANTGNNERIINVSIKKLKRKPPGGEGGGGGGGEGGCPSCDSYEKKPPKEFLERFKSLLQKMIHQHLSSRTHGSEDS
VH: B1 VH
VL: B1 VL
notes: as for B1
B3: xhCD8.1-hIL21 v30 (other)
chain: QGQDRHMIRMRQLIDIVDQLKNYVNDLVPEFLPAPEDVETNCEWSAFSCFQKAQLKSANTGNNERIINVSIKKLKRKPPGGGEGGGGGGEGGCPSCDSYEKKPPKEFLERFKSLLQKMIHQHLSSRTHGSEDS
VH: B1 VH
VL: B1 VL
notes: as for B1
B4: xhCD8.1-hIL21 v27 (other)
chain: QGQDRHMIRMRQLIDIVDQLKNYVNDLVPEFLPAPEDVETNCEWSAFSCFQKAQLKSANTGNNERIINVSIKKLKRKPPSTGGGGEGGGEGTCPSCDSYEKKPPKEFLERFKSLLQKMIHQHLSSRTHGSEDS
VH: B1 VH
VL: B1 VL
notes: as for B1
B5: xhCD8.1-hIL21 v28 (other)
chain: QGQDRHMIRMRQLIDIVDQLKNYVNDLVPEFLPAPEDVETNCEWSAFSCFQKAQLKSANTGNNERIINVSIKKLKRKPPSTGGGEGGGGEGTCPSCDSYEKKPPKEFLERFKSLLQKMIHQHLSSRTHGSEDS
VH: B1 VH
VL: B1 VL
notes: as for B1
B6: xhCD8-hIL21 v2 (other)
chain: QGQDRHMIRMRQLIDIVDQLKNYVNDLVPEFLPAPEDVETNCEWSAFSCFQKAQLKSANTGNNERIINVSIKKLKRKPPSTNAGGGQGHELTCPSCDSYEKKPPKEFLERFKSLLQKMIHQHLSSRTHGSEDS
VH: QVHLQQSGPELVKPGASVKMSCKTSGYTFTKYTMHWVKQGHEESLEWIGHFNPNNDETKYNQKFTGKATLTVDKSSTTAYMELRSLTSDDSALYYCARDGLGLRLFADWGQGTLITVSA
VL: DIQMTQSPASLSASVGETVTITCGASENIYGALNWYQRKQGKSPQLLIFGATNLADGVSSRFSGSGSDRQYSLKISSLHPDDVATYYCQNILDTPWTFGGGTKLEIK
notes: hIgG1/kappa; IL-21 part on one heavy-chain C-terminus via (G4S)3 linker; also called exemplary IL-21 polypeptide 2
B7: xhCD8-hIL21 v1 (other)
chain: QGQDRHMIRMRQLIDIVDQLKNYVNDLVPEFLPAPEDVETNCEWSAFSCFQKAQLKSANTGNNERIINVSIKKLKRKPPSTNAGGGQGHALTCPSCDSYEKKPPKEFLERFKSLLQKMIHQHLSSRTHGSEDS
VH: B6 VH
VL: B6 VL
notes: hIgG1/kappa; also called exemplary IL-21 polypeptide 1
B8: xhCD8-hIL21 v6 (other)
chain: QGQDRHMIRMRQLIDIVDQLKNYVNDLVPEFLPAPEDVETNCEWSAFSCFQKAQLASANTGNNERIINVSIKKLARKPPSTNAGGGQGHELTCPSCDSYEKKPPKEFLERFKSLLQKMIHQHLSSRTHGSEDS
VH: B6 VH
VL: B6 VL
notes: hIgG1/kappa; IL-21 part on one heavy-chain C-terminus via (G4S)3 linker; also called exemplary IL-21 polypeptide 6
B9: xhCD8.1-hIL21 v2.43 (other)
chain: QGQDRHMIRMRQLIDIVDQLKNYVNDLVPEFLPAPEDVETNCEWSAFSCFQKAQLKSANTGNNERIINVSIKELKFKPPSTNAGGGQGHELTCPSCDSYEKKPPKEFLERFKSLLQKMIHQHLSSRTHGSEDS
VH: B1 VH
VL: B1 VL
notes: as for B1
B10: xhCD8.1-hIL21 v2.42 (other)
chain: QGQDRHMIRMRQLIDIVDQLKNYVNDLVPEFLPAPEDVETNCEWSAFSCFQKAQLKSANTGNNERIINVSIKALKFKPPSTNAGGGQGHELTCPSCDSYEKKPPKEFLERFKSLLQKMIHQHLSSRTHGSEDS
VH: B1 VH
VL: B1 VL
notes: as for B1
B11: xhCD8.1-hIL21 v2.20 (other)
chain: not shown
VH: B1 VH
VL: B1 VL
notes: as for B1
B12: xhCD8.1-hIL21 v2.45 (other)
chain: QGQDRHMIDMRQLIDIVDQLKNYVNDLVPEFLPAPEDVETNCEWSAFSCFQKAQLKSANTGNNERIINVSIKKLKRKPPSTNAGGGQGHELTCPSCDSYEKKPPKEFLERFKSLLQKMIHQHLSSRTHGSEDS
VH: B1 VH
VL: B1 VL
notes: as for B1
B13: xhCD8.1-hIL21 v2.46 (other)
chain: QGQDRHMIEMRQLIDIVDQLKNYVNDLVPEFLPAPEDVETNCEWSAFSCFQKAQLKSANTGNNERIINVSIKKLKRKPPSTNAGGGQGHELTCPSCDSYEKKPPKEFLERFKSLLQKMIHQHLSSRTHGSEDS
VH: B1 VH
VL: B1 VL
notes: as for B1
B14: xhCD8.1-hIL21 v2.7 (other)
chain: not shown
VH: B1 VH
VL: B1 VL
notes: as for B1
B15: xhCD8.1-hIL21 v2.30 (other)
chain: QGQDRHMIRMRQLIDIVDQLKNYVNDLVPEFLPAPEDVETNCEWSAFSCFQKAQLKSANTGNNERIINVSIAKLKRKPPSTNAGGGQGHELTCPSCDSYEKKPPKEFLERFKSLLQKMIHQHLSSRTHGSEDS
VH: B1 VH
VL: B1 VL
notes: as for B1
B16: xhCD8.1-hIL21 v2.28 (other)
chain: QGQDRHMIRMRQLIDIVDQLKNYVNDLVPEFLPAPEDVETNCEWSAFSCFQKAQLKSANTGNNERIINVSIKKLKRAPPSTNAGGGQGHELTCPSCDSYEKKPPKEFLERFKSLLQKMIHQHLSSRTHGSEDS
VH: B1 VH
VL: B1 VL
notes: as for B1
B17: xhCD8.1-hIL21 v2.36 (other)
chain: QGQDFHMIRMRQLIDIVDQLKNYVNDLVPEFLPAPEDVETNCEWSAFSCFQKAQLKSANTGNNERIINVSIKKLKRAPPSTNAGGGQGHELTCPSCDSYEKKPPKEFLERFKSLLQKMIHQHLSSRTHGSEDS
VH: B1 VH
VL: B1 VL
notes: as for B1
B18: xhCD8.1-hIL21 v2.31 (other)
chain: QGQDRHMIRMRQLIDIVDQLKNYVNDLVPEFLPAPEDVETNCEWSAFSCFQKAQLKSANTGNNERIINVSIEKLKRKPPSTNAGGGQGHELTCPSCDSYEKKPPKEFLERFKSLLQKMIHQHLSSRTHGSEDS
VH: B1 VH
VL: B1 VL
notes: as for B1
B19: xhCD8.1-hIL21 v2.37 (other)
chain: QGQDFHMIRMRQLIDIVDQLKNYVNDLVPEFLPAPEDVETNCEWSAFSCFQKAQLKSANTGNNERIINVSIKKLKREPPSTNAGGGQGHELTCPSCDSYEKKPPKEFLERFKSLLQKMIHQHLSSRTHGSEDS
VH: B1 VH
VL: B1 VL
notes: as for B1
B20: xhCD8.1-hIL21 v2.38 (other)
chain: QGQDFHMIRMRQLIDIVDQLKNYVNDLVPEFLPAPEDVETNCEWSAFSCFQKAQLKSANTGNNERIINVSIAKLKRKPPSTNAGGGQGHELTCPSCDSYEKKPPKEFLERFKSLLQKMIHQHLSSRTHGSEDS
VH: B1 VH
VL: B1 VL
notes: as for B1
B21: xhCD8.1-hIL21 v2.9 (other)
chain: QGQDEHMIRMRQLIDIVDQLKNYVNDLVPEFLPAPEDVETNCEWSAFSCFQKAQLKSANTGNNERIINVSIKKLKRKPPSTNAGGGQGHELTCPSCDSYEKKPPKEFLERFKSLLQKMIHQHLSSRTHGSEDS
VH: B1 VH
VL: B1 VL
notes: as for B1
B22: xhCD8.1-hIL21 v2.56 (other)
chain: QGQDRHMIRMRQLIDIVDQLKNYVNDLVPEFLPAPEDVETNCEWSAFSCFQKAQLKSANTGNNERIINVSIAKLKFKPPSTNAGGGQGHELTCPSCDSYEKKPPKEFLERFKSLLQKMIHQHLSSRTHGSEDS
VH: B1 VH
VL: B1 VL
notes: as for B1
B23: xhCD8.1-hIL21 v2.40 (other)
chain: not shown
VH: B1 VH
VL: B1 VL
notes: as for B1
B24: xhCD8.1-hIL21 v2.41 (other)
chain: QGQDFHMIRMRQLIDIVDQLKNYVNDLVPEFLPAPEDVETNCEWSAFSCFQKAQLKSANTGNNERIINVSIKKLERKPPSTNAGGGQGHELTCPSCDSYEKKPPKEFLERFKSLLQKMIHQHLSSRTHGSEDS
VH: B1 VH
VL: B1 VL
notes: as for B1
B25: xhCD8.1-hIL21 v2.34 (other)
chain: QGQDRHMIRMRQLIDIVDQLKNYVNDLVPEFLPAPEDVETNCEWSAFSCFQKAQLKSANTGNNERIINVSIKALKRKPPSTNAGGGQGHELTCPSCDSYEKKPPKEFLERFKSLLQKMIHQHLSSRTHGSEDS
VH: B1 VH
VL: B1 VL
notes: as for B1
B26: xhCD8.1-hIL21 v2.29 (other)
chain: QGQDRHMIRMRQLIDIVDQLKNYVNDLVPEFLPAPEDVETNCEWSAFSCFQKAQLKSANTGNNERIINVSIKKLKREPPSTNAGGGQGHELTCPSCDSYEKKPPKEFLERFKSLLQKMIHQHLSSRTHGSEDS
VH: B1 VH
VL: B1 VL
notes: as for B1
B27: xhCD8.1-hIL21 v2.32 (other)
chain: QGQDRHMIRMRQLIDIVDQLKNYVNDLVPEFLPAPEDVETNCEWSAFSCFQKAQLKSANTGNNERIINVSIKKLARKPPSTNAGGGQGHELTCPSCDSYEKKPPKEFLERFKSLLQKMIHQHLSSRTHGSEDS
VH: B1 VH
VL: B1 VL
notes: as for B1
B28: xhCD8.1-hIL21 v2.39 (other)
chain: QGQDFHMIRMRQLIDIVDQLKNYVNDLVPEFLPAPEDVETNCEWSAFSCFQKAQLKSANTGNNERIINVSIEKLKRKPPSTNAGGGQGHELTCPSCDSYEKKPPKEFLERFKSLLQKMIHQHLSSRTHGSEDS
VH: B1 VH
VL: B1 VL
notes: as for B1
B29: xhCD8.1-hIL21 v2.33 (other)
chain: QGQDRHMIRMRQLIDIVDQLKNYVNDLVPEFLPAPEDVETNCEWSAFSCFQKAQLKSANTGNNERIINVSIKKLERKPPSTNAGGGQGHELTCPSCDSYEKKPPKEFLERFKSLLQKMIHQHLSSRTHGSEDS
VH: B1 VH
VL: B1 VL
notes: as for B1
B30: xhCD8.1-hIL21 v2.58 (other)
chain: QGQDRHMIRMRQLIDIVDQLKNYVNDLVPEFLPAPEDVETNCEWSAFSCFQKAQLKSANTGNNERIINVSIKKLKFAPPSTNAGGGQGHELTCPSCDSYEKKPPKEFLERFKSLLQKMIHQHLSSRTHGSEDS
VH: B1 VH
VL: B1 VL
notes: as for B1
B31: xhCD8v11 (antibody, V domains shown)
VH: EVQLVESGGGLVQPGGSLRLSCAASGFTFSSYAMSWVRQAPGKGLEWVSDITYAGGSTAYADSVKGRFTISRDNAKNSLYLQMNSLRAEDTAVYYCARSNAYAWDDALDIWGQGTLVTVSS
VL: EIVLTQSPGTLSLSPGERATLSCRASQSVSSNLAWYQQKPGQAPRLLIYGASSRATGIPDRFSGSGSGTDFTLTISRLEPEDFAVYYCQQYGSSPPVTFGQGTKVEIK
notes: used as targeting arm of fusions
B32: xhCD8.1-hIL21 v2.64 (other)
chain: QGQDRHMIRMRQFIDAADQLKNYVNDLVPEFLPAPEDVETNCEWSAFSCFQKAQLKSANTGNNERIINVSIKKMKRKPPSTNAGGGQGHELTCPSCDSYEKKPPKEFLERFKSLLQKMIHQHLSSRTHGSEDS
VH: B1 VH
VL: B1 VL
notes: as for B1
B33: xhCD8.1-hIL21 v2.65 (other)
chain: B32 chain with F13R, A17I, M74I
VH: B1 VH
VL: B1 VL
notes: as for B1
B34: xhCD8.1-hIL21 v2.63 (other)
chain: B32 chain with F13L, A16R, A17I, M74I
VH: B1 VH
VL: B1 VL
notes: as for B1

Each binder was assayed against T2, Human IL-21R (Biolegend, Catalog No. 773104) (human, UniProt Q9HBE5 20-232, limits assumed) (assay: SPR 37 C, Fc-captured fusion;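 further: biacore SPR with anti-human IgG Fc surface and blank flow cell as reference, 10 min dissociation, double-referenced, 1:1 Langmuir fit with mass transport, triplicate runs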).
T2 construct: Bought protein; also called IL-21 receptor
T2 sequence (Q9HBE5 20-232 limits assumed): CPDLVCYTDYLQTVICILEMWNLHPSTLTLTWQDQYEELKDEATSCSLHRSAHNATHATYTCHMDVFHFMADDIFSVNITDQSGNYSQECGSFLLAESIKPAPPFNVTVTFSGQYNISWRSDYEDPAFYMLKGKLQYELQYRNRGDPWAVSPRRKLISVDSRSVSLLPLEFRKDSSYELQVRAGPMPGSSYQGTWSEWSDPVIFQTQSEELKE

| Kd [nM] | koff [s⁻¹] | kon [M⁻¹ s⁻¹] | Binder |
| --- | --- | --- | --- |
| 0.094 | 0.00119 | 1.27e+07 | B1 |
| 0.094 | 0.00113 | 1.2e+07 | B2 |
| 0.093 | 0.00107 | 1.16e+07 | B3 |
| 0.106 | 0.00139 | 1.31e+07 | B4 |
| 0.106 | 0.00139 | 1.31e+07 | B5 |
| 0.122 | 0.0011 | 8.9e+06 | B6 |
| 0.117 | 0.00097 | 8.3e+06 | B7 |
| 0.478 | 0.0025 | 5.2e+06 | B8 |

The binders below were run against T3, recombinant human IL-21R, extracellular domain fused to 8xHistidine tag (generated in house) (human, UniProt Q9HBE5 20-232) (assay: SPR 37 C).
T3 sequence (Q9HBE5 other isoform, or with tags, fused parts or gaps limits assumed): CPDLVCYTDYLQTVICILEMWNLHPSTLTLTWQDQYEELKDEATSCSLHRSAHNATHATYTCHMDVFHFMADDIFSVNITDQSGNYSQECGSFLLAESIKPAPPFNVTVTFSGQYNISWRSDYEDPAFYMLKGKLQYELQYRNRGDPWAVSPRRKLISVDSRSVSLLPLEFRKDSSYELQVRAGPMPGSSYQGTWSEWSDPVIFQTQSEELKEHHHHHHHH

| binding result | Binder |
| --- | --- |
| no binding | B9 |
| no binding | B10 |
| no binding | B11 |
| no binding | B12 |
| no binding | B13 |

These binders were tested against T3, recombinant human IL-21R, extracellular … (assay: SPR 37 C, Fc-captured fusion).

| Kd [nM] | Binder |
| --- | --- |
| 156 | B14 |
| 0.419 | B15 |
| 0.693 | B16 |
| 125 | B17 |
| 3.4 | B18 |
| 601 | B19 |
| 66.9 | B20 |
| 420 | B21 |
| 156 | B22 |
| 54.7 | B23 |
| 104 | B24 |
| 2 | B25 |
| 2.8 | B26 |
| 0.236 | B27 |
| 614 | B28 |
| 1.3 | B29 |
| 420 | B30 |

Each binder was assayed against T1, mouse CD8 (assay: stated; no assay described).

| binding result | Binder |
| --- | --- |
| no binding | B31 |

The binders below were run against human CD8 on CD8+ T cells (human, UniProt P01732 22-235; P10966 22-210) (assay: cell-based or functional assay).
Sequence of human CD8 on CD8+ T cells (P01732 22-235, chain 1 of 2): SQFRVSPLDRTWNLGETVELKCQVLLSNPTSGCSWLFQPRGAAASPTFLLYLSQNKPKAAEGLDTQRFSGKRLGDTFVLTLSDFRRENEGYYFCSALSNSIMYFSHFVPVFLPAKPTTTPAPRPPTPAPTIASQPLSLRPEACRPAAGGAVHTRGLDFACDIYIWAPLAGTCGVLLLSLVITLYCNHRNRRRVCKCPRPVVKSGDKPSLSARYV
Sequence of human CD8 on CD8+ T cells (P10966 22-210, chain 2 of 2): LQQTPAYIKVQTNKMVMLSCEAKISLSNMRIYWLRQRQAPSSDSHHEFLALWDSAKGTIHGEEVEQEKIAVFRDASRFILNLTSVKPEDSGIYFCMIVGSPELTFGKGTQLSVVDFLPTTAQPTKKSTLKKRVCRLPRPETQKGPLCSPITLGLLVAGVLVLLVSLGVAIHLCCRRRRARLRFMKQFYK

| STAT3 activation in human whole blood (pSTAT3, flow cytometry) [fold] | Binder |
| --- | --- |
| > 100 | B32 |
| > 100 | B33 |
| > 100 | B34 |

What follows are binders tested against T2, Human IL-21R (Biolegend, Catalog No. …) (assay: SPR 37 C).

| fold difference in IL-21R affinity against wild type IL-21 [fold] | Binder |
| --- | --- |
| ≤ 2 | B1 |
| ≤ 2 | B2 |
| ≤ 2 | B3 |
| ≤ 2 | B4 |
| ≤ 2 | B5 |
| ≤ 2 | B6 |
| ≤ 2 | B7 |
| ~3 | B8 |
